Measurements as given in US20250361298A1 (CARTOGRAPHY BIOSCIENCES, published 2025).
Changes are numbered by the printed parent chain. Blank lines part the entries; values can stand above or below the binder they belong to. Starred links: 1 amine or outer side, 2 acyl side, 3 side chain; linkers in the order of their positions; H or OH if unused. Positions of bridges follow the written chain, without caps; N, C: chain ends. Primed or numbered codes have the meaning given here. PEG2′ = PEG2 spacer at the C-terminus, followed by 3-mercaptopropionate; CH2 = C([*:1])[*:2]

How the values were obtained:
[1] = target: T1, LY6G6D cyclic peptide Ac-RDC*YLGDLC*NS-PEG2-3-mercaptopropionate (bridge 3-9 via CH2; not fully specified; printed as Ac-RDC*YLGDLC*NS-PEG2-3-mercaptopropionate); test: flow binding assay on cyclic-peptide beads
T1 construct: Represents the most membrane-proximal stretch of LY6G6D; also called octomer cyclic peptide
T1 peptide: Ac-RDCYLGDLCNS-{PEG2′-3‑mercaptopropionate}

[2] = target: T2, Human LY6G6D ectodomain fused to mouse IgG2A Fc (monovalent display, knob-in-hole) (human, biotinylated for BLI capture (site not stated)); test: SPR, Biacore 8K+, LY6G6D-mouse Fc captured by anti-mouse antibody on CM5, antibody as analyte 50-0.7813 nM, 25 C
T2 chain: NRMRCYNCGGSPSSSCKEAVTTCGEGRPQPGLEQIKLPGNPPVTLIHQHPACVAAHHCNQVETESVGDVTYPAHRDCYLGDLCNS
Procedure: (§1) SPR multipoint kinetic analyses against human and cynomolgus monkey LY6G6D was also performed. LY6G6D binding kinetics were performed via surface plasmon resonance (SPR) on a Biacore 8K+. A Mouse Antibody Capture Kit, type 2 (Cytiva 29215281) was used for amine coupling to a CM5 sensor chip (BR100530) and the immobilization was performed exactly according to the manufacturer's standard settings. To begin an SPR run, 7 startup cycles were run following chip immobilization to establish sensor stability. In these, LY6G6D-mouse Fc fusion antigen was first flowed into just flow cell 2 at 10 uL/min at a 5 nM concentration with a 120 sec contact time. 1×HBS-EP+ buffer, pH 7.6 was then flowed at 30 μL/min with a 420 sec contact time into the chip. Finally regeneration solution (10 mM Glycine-HCl pH 1.7) was flowed at 30 uL/min with a 120 sec contact time.
(§2) After this point, 16 analysis cycles were run, 8 first with human LY6G6D-mouse Fc fusion antigen and 8 next for cyno LY6G6D-mouse Fc fusion antigen. In both antigen formats, the antigen was captured at 10 uL/min at a 5 nM concentration diluted into 1×HBS-EP+ buffer, pH 7.6 with a 120 sec contact time. Next, selected antibodies diluted into 1×HBS-EP+ buffer, pH 7.6 were run as the analytes across a 7-point dilution series, 50 nM to 0.7813 nM with two-fold dilutions. A contact time of 300 sec followed by dissociation time of 1200 sec at a flow rate of 30 μL/min was used. Regeneration solution (10 mM Glycine-HCl pH 1.7) was flowed at 30 μL/min with a 120 sec contact time. Finally, a wait step of 60 sec with flow rate of 30 μL/min 1×HBS-EP+ buffer, pH 7.6 was used to re-establish sensor stability. These SPR binding studies were performed at 25° C.

[3] = target: T3, Cynomolgus LY6G6D ectodomain fused to mouse IgG2A Fc (monovalent display, knob-in-hole) (cynomolgus, UniProt O95868 20-104 (human entry)); test: SPR, Biacore 8K+, cyno LY6G6D-mouse Fc captured by anti-mouse antibody on CM5, antibody as analyte 50-0.7813 nM, 25 C
T3 construct: Same design as the human construct; Tags are not described; also called cyno LY6G6D-mouse Fc fusion antigen; cynomolgus monkey LY6G6D
T3 chain: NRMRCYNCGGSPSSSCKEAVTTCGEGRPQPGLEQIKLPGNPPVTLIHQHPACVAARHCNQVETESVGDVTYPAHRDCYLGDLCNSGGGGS
Procedure: as §1, §2

[4] = target: T2, Human LY6G6D ectodomain fused to mouse …; test: BLI, chain shuffle round 1; antigen not named in the table (LY6G6D ectodomain as in Example 3)

- Kd [2]: 0.385 nM
- koff [2]: 7.12e-05 s⁻¹
- kon [2]: 185000 M⁻¹ s⁻¹
- Kd [3]: 0.9 nM
- koff [3]: 0.000149 s⁻¹
- kon [3]: 166000 M⁻¹ s⁻¹
B2: CB21-499-177 (antibody, V domains shown)
VH: EVQLVESGGGVVQPGRSLRLSCAASGFTFSSYGMHWVRQAPGKGLEWVAVIWYDASNKEYAPSVKGRFTISRDNSKNTLYLQMNSLRAEDTAIYYCARPGEGDYWGQGTLVTVSS
VL: DIQMTQSPSSLSASVGDRVTITCRASQGVRNDFGWFQQKPGKAPKRLIYGASSLQSGVPSRFSGSGSGTEFTLTISSLQPEDFATYYCLQQNSYPWTFGQGTKLEIK

- binding result [1]: binds
B3: CB21-477 (antibody, V domains shown)
VH: B2 VH with A55G, E59D, P62D, I93V
VL: B2 VL with V29I, F33L, F36Y, K42R, G50A, L104V
notes: Human Fc formats; monovalent antibody in BLI

- binding result [1]: binds
B4: CB21-499 (antibody, V domains shown)
VH: B2 VH with A55G, E59D, P62D
VL: B2 VL
notes: as for B3

- Kd [4]: 3.15 nM
- koff [4]: 0.000413 s⁻¹
- kon [4]: 131000 M⁻¹ s⁻¹
B6: CP1476 (heavy chain from CB21-500, light chain from CB21-469) (antibody, V domains shown)
VH: EVQLVESGGGLVQPGGSLRLSCAASGFTFSSYAMNWVRQVPGKGLEGVSGMSGSGGRIYYADSVKGRFTMSRDNSKNMVYLQMNSLRAEDTALYYCAKDLDVWGKGTTVTVSS
VL: DVVMTQTPLSSPVTLGQSASISCRSSQSLVHSDGNTYLNWLHQRPGQPPRLLIYKISNRFSGVPDRFSGSGAGTDFTLKISRVEAEDVGVYYCMQATQFPLTFGGGTKLEIK
notes: Chain-shuffled antibody

- Kd [4]: 0.554 nM
- koff [4]: 8.4e-05 s⁻¹
- kon [4]: 152000 M⁻¹ s⁻¹
B8: CP1473 (heavy chain from CB21-498, light chain from CB21-469) (antibody, V domains shown)
VH: EMQLVESGGGLVQPGGSLRLSCAASGFTFSSYAMNWVRQAPGKGLECVSGISGNGGRIYYAESVKGRFTISRDNSKSTFYLQMNSLRAEDTAVYYCAKDLDVWGKGTTVTVSS
VL: B6 VL
notes: Chain-shuffled antibody

- Kd [4]: 17.6 nM
- koff [4]: 0.000264 s⁻¹
- kon [4]: 15000 M⁻¹ s⁻¹
B9: CP1481 (heavy chain from CB21-513, light chain from CB21-500) (antibody, V domains shown)
VH: EVQLVDSGGGLVEPGGSLRLSCAASGFTFSSYAMTWVRQAPGKGLEWVSGISGSGGVTDYADSVKGRFTISRDNSKNTLYMQMNSLRAEDTAVYYCAKDLGVWGKGTTVTVSS
VL: B6 VL with S18P, S28N, H42Q
notes: Chain-shuffled antibody

- Kd [2]: 3.2 nM
- koff [2]: 0.00031 s⁻¹
- kon [2]: 96700 M⁻¹ s⁻¹
- Kd [3]: 5.57 nM
- koff [3]: 0.000448 s⁻¹
- kon [3]: 80500 M⁻¹ s⁻¹
B12: CB21-498-142 (antibody, V domains shown)
VH: B8 VH with M2V, C47G, N54S, T69Q
VL: B6 VL with G34A, A72S

- binding result [1]: binds
B13: CB21-513 (antibody, V domains shown)
VH: B9 VH
VL: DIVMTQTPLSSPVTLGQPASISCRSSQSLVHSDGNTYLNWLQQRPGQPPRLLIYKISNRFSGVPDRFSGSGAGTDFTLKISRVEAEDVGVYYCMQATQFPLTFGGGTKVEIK
notes: as for B3

- Kd [4]: 5.35 nM
- koff [4]: 0.000705 s⁻¹
- kon [4]: 132000 M⁻¹ s⁻¹
B14: CP1478 (heavy chain from CB21-500, light chain from CB21-513) (antibody, V domains shown)
VH: B6 VH
VL: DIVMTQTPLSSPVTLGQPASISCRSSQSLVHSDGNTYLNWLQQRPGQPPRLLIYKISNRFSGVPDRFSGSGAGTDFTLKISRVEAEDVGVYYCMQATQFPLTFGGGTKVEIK
notes: Chain-shuffled antibody

- binding result [1]: binds
B16: CB21-498 (antibody, V domains shown)
VH: B8 VH
VL: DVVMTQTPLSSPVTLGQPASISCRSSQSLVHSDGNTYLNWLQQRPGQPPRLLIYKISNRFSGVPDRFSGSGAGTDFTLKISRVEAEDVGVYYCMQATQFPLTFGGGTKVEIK
notes: as for B3

- binding result [1]: binds
B17: CB21-500 (antibody, V domains shown)
VH: B6 VH
VL: B6 VL with S18P, S28N, H42Q
notes: as for B3

- binding result [1]: binds
B21: CB21-522 (antibody, V domains shown)
VH: EVQLVQSGAEVKKPGASVKVSCKASGYTFTGYFIHWVRQAPGQGLEWMGWINPNSGGTYYAQEFQGRVTMTRDTSISTAYMELIRLRSDDSAVYYCARDISLVGDYWGQGTLVTVSS
VL: DVVMTQSPLSLPVTLGQPASISCRSSQSLVYSDGNTYLNWFQQRPGQSPRRLIYKVSNRDSGVPERFSGIGSGTDFTLEISRVEAEDVGVYYCMQGSHWPLTFGGGTKVEIK
notes: as for B3

Continued, binder first:

B1: CB21-471 (antibody, V domains shown)
VH: B2 VH with A40V, A55G, E59D, A61V, P62D, I93V
VL: B2 VL with V29I, F36Y, L104V
notes: as for B3
- binding result [1]: binds

B5: CB21-469 (antibody, V domains shown)
VH: B8 VH with M2V, C47W, E62D, S77N, F79L, A88V
VL: B6 VL
notes: Cloned into knob/hole human Fc and light chain vectors; IgG and bispecific TCE formats were made; BLI used a monovalent antibody format
- binding result [1]: binds

B7: CP1479 (heavy chain from CB21-513, light chain from CB21-469) (antibody, V domains shown)
VH: B9 VH
VL: B6 VL
notes: Chain-shuffled antibody
- Kd [4]: 16.5 nM
- koff [4]: 0.00053 s⁻¹
- kon [4]: 32200 M⁻¹ s⁻¹

B10: CP1475 (heavy chain from CB21-498, light chain from CB21-513) (antibody, V domains shown)
VH: B8 VH
VL: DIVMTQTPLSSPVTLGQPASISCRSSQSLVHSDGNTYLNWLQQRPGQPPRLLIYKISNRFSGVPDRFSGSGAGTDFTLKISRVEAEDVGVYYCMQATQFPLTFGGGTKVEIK
notes: Chain-shuffled antibody
- Kd [4]: 0.91 nM
- koff [4]: 0.000105 s⁻¹
- kon [4]: 116000 M⁻¹ s⁻¹

B11: CP1474 (heavy chain from CB21-498, light chain from CB21-500) (antibody, V domains shown)
VH: B8 VH
VL: B6 VL with S18P, S28N, H42Q
notes: Chain-shuffled antibody
- Kd [4]: 0.699 nM
- koff [4]: 9.87e-05 s⁻¹
- kon [4]: 141000 M⁻¹ s⁻¹

B15: CP1471 (heavy chain from CB21-469, light chain from CB21-500) (antibody, V domains shown)
VH: B8 VH with M2V, C47W, E62D, S77N, F79L, A88V
VL: B6 VL with S18P, S28N, H42Q
notes: Chain-shuffled antibody
- Kd [4]: 12.7 nM
- koff [4]: 0.0017 s⁻¹
- kon [4]: 134000 M⁻¹ s⁻¹

B18: CB21-512 (antibody, V domains shown)
VH: EVQLVESGGGVVQPGRSLRLSCAASGFTFSSYGMHWVRQAPGKGLEWVAVLWYDGINKNYADSVKGRFAISRDNSKNTLYLQMNSLRVEDTAVYFCVRVQGDYWGQGTLVTVSS
VL: DIQMTQSPSSLSASVGDRVTITCRASQGIRNDLTWYQQKPGKAPKRLIYDTSSLQSGVPSRFSGSRSGTEFTLTISSLQPEDFASYFCLQHNIYPFTFGQGTKLEIK
notes: as for B3
- binding result [1]: binds

B19: CB21-470 (antibody, V domains shown)
VH: B18 VH with S30N, F95Y
VL: B18 VL with I93S
notes: as for B3
- binding result [1]: binds

B20: CB21-502 (antibody, V domains shown)
VH: B18 VH with A61V
VL: B18 VL with R66G, E70D
notes: as for B3
- binding result [1]: binds
